The source of these data is PMC4609913.

The target in assay [1] is recombinant ADAM12 (A Disintegrin and Metalloproteinase 12), activated by furin (UniProt O43184).
For assay [2] the target is unchanged. Briefly: enzyme inhibition assay (fluorogenic FRET-peptide protease activity); 6-point dilution of PA12 incubated with 5 nM recombinant ADAM12 for 10 min before the substrate; 15 uM Dabcyl-LAQAhomopheRSK(FAM)-NH2, 25 mM Tris pH 8, 10^-3% Brij-35, 10 mM CaCl2, 15 uM furin inhibitor 1, RT; Ki inferred from dose-response curves.

Sequence of recombinant ADAM12 (A Disintegrin and Metalloproteinase 12), activated by furin (O43184 whole entry): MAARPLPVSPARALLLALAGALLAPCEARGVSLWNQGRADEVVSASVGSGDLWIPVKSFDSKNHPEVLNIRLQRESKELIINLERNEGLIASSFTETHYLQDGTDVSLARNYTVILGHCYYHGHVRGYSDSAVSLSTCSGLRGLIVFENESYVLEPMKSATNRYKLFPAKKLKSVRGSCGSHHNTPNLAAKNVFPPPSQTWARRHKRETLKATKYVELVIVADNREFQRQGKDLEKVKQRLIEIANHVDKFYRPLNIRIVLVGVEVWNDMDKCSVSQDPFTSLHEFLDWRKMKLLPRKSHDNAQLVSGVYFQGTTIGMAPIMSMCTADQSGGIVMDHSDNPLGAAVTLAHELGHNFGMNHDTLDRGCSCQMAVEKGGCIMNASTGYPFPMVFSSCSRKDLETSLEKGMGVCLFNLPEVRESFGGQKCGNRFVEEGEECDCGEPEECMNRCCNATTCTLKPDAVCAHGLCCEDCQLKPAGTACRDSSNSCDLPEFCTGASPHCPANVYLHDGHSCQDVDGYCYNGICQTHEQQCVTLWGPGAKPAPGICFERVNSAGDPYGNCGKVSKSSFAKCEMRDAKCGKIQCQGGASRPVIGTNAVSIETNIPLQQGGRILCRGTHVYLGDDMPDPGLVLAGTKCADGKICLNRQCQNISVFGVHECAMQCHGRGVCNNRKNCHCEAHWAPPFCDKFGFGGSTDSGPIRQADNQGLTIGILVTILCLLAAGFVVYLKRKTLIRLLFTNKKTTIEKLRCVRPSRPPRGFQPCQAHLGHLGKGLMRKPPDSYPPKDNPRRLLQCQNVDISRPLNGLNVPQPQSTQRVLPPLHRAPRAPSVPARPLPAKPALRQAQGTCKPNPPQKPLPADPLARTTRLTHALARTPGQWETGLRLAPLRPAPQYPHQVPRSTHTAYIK

B1: recombinant His-tagged human ADAM12 prodomain (amino acids 29-206) (domain or fragment)
chain: RGVSLWNQGRADEVVSASVGSGDLWIPVKSFDSKNHPEVLNIRLQRESKELIINLERNEGLIASSFTETHYLQDGTDVSLARNYTVILGHCYYHGHVRGYSDSAVSLSTCSGLRGLIVFENESYVLEPMKSATNRYKLFPAKKLKSVRGSCGSHHNTPNLAAKNVFPPPSQTWARRHK
With B1, the relative level of intact transmembrane HB-EGF on 12Z-HE cells (live-cell Myc immunostaining, flow cytometry) after 2 uM PA12 for 3 h in assay [1] is 20%. Moreover, the inhibition constant (Ki) in assay [2] is 430 nM.
